System: inguinal fat
Experiment: Irisin injection in mice: Ucp1/Dio2 mRNA and Ucp1 protein in inguinal fat
Assay type: in vivo
Experimental: FIG. 18A-FIG. 18B show mRNA and protein levels of indicated genes. 1 mg/kg irisin was injected to 8-week old mice every other day for 6 days. mRNA levels of indicated genes in inguinal fat were analyzed by qRT-PCR. Cyclophilin was used for housekeeping gene (FIG. 18A). Inguinal fats were also lysed to detect the indicated protein level using immunoblot analysis (FIG. 18B). FIGS. 18C and 18D show mRNA and protein levels of indicated genes. Mice were treated and analyzed as (A-B) with addition of coinjection of […] control RGD peptide or cyclo RGDyK (cRGDyK). mRNA levels of indicated genes in inguinal fat were analyzed by qRT-PCR. Cyclophilin was used for house-keeping gene (FIG. 18C). Inguinal fats were also lysed to detect the indicated protein level using immunoblot analysis (FIG. 18D). […] Ucp1 mRNA level was analyzed by qRT-PCR. […]
RNA was extracted from cultured cells or frozen tissues using TRIzol® (Thermo Fischer Scientific) and purified with RNeasy® mini kit (QIAGEN 74106). […] To perform qRT-PCR analysis, normalized RNA was reverse transcribed using a high-capacity cDNA reverse-transcription kit (Applied Biosystems™). cDNA was analyzed by qRT-PCR with indicated primers. Relative mRNA levels were calculated using the comparative CT method and normalized to cyclophilin mRNA. […]

B1: irisin: secreted cleaved form of FNDC5; recombinant human/mouse irisin with C-terminal his tag produced in HEK293 cells (protein)
chain: DSPSAPVNVTVRHLKANSAVVSWDVLEDEVVIGFAISQQKKDVRMLRFIQEVNTTTRSCALWDLEEDTEYIVHVQAISIQGQSPASEPVLFKTPREAEKMASKNKDEVTMKE
modifications: left off: small tags and cut ends
notes: secreted cleaved form of FNDC5; recombinant human/mouse irisin with C-terminal his tag produced in HEK293 cells
Ucp1 protein level in whole tissue (western blot) (mice, irisin injections): also increased
increase of mRNA level of Ucp1 (wild-type mice, 1 mg/kg irisin every other day for 6 days): more than 2 fold
